Measurements taken from patent publication US9044511B2, “Peptide” (Marealis AS, priority 2010, dated 2015).
Values joined by “and” are separate entries in the source; they are usually repeats but may differ in a detail not shown here. Equal values may be shown once. Read-outs that look alike come from different tables or passages of the source. Peptide text beside a SMILES is read from it.

How the values were obtained:
[1] = molecular target: T1, ACE (Sigma A 6778) (Oryctolagus cuniculus, UniProt P12822); assay: ACE-inhibitory activity, HHL substrate, hippuric acid by HPLC (method of Dragnes et al. / Cushman and Cheung); assay type: biochemical
T1 construct: purchased Sigma A 6778
T1 sequence (P12822 34-1310): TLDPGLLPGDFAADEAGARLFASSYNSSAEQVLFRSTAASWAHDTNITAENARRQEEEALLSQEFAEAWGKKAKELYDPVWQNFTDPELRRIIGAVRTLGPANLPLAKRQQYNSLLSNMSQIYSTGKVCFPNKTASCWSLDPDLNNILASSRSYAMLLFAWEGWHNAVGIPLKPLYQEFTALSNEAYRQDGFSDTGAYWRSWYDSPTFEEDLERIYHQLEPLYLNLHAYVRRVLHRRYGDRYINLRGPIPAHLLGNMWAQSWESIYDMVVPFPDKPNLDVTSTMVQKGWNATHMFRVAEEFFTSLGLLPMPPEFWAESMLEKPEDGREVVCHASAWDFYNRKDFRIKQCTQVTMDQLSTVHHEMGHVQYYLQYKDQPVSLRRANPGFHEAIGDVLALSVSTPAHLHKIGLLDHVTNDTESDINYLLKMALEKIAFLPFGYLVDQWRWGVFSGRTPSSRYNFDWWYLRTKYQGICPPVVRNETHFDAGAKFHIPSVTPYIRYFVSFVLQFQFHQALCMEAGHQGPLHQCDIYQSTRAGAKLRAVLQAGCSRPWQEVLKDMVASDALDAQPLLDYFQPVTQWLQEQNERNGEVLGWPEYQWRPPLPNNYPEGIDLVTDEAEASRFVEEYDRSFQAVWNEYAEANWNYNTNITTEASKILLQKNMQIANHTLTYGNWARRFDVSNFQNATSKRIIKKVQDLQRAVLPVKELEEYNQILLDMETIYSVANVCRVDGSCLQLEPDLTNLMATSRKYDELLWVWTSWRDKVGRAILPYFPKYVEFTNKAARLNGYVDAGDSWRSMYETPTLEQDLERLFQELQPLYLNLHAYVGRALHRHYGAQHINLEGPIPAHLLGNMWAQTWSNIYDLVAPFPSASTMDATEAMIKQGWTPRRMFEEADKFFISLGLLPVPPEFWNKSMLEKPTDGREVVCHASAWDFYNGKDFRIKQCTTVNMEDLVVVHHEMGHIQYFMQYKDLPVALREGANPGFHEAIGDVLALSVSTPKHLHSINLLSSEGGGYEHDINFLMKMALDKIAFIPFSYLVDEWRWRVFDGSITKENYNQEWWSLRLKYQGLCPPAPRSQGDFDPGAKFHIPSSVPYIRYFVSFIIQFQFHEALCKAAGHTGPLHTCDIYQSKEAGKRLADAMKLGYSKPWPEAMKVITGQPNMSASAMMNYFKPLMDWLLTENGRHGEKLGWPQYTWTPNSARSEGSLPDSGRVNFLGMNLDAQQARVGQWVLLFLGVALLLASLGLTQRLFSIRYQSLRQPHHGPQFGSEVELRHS
From the text: ACE-inhibitory activity may be assayed using known methods, for example based on the method reported by Cushman and Cheung (1971) by measuring the end product hippuric acid (HA) from the enzymatic reaction between ACE (Sigma A 6778) and the substrate HHL (Sigma H 1635). (CUSHMAN, D. W. & CHEUNG, H. S. (1971). Concentrations of Angiotensin-Converting Enzyme in Tissues of Rat. Biochimica Et Biophysica Acta 250(1), 261-265 and Dragnes et al. J Food Composition and Analysis 2009; 22: 714-17). A different suitable assay is disclosed by Vermeirssen et al. (2002), J. Biochem Biophys. Methods 51 (2002), pages 75-87, which is incorporated herein by reference. Briefly, this is a spectrophotometric method in which ACE inhibition is measured using the substrate furanacryloyl-Phe-Gly-Gly and rabbit lung acetone extract as the ACE source. The IC50 may be determined.
An FSY peptide was analysed via an enzyme assay wherein ACE produces hippuric acid (HA) from the substrate hippuryl-histidine-leucine (HHL). The HA concentration was determined by quantitative HPLC analyses and a decreased concentration was correlated with inhibitory effect. ACE-inhibitory activity was determined based on the method reported by Cushman and Cheung (1971) by measuring the end product hippuric acid (HA) from the enzymatic reaction between ACE (Sigma A 6778) and the substrate HHL (Sigma H 1635), essentially as described in Dragnes et al. J Food Composition and Analysis 2009; 22: 714-17. A 100 μl volume with 2 mM HHL in 100 mM sodium borate buffer pH 8,3 was pre-incubated at 37° C. for 30 minutes with 25 μl inhibitor (FSY peptide diluted in Sodium borate buffer). Then the assay was initiated by adding 50 μl ACE (10 mU). The enzymatic reaction was stopped by addition of 215 μl 1 M HCl.
Quantitative HPLC analyses were performed on a Shimadzu (Shimadzu Corporation, Japan), using a Symmetry-Shield reverse phase C-18 Intelligent Speed column. The HA was eluted at ambient temperature using a mobile phase that consisted of 0.05% aqueous trifluoroacetic acid and HPLC-grade acetonitrile. A 2 min linear gradient was used, beginning after 0.5 min isocratic elution with 5% acetonitrile and ending with 90% acetonitrile. The flow-rate was maintained at 2 mL min ? 7 1 and the UV absorption was measured at 228 nm.
Determinations of IC50 values depend on the precise assay conditions, which makes it difficult to make meaningful comparisons between IC50 values determined in separate assays. A comparative analysis was therefore carried out to compare the ACE-inhibitory activity of the FSY peptide to known ACE-inhibitory peptides. ACE-inhibitory activity was assayed using the method of Dragnes et al. described in Example 1.

[2] = molecular target: T2, Angiotensin I-converting enzyme (ACE) (Sigma A 6778) (UniProt P12822 34-1310, limits assumed); assay: cell-based or functional assay
T2 sequence (looked up): T1 sequence (P12822 34-1310)

[3] = molecular target: T3, ACE from rabbit lung acetone extract (rabbit, UniProt P12822 34-1310, limits assumed); assay: cell-based or functional assay
T3 sequence (looked up): T1 sequence (P12822 34-1310)

[4] = molecular target: T2, Angiotensin I-converting enzyme (ACE) …; assay: cell-based or functional assay; remark: listed apart in the source
[5] = comparative analysis, read-out: IC50 in μg/ml (converted)

IC50 [1, 5] [nM] | IC50 of ACE inhibition (method of Vermeirssen et al.) [3] [µM] | IC50 in µM (ACE inhibition, method of Dragnes et al.) [4] [µM] | IC50 in µg/ml (ACE inhibition, method of Dragnes et al.) [4] [µg/mL] | Molecule | other results
12800 |  |  |  | CC(C)[C@H](N)C(=O)N[C@@H](Cc1ccc(O)cc1)C(=O)O [VY, reference compound] (H-Val-Tyr-OH; N-terminus and C-terminus assumed) | 
 |  | 13 | 3.6 | VY | 

More lines, now with the values behind:

Molecule | IC50 [1, 5] [nM] | IC50 of ACE inhibition (method of Vermeirssen et al.) [3] [µM] | IC50 in µM (ACE inhibition, method of Dragnes et al.) [4] [µM] | IC50 in µg/ml (ACE inhibition, method of Dragnes et al.) [4] [µg/mL] | other results
N[C@@H](Cc1ccccc1)C(=O)N[C@@H](CO)C(=O)N[C@@H](Cc1ccc(O)cc1)C(=O)O [FSY] (H-Phe-Ser-Tyr-OH; N-terminus and C-terminus assumed) | 2170 |  |  |  | IC50 ([1]; comparative analysis, read-out: IC50): 2200 nM; IC50 ([1]; typical measurements, read-out: IC50 with respect to ACE inhibition, method of Dragnes et al.): ~2200 nM
FSY [FSY peptide] |  | ~7.7 | 2.2 | 0.9 | IC50 of ACE inhibition (hippuric acid from HHL, HPLC; method of Dragnes et al.) [2]: ~4 µM and 1.7 µM and ~2.2 µM
IPP |  |  | 3.2 | 1.04 | 
FTY [FTY peptide] |  | ~274 |  |  | IC50 of ACE inhibition (method of Dragnes et al.) [2]: ~59 µM
